For this assay, the target named is human CD3 expressed on cells (Jurkat cells; human T-cells of PBMC) (human) (UniProt P09693). Nature of the assay: cell-based or functional assay.
human CD3 expressed on cells (Jurkat cells; human T-cells of PBMC) (human), sequence (chain, as listed by the source, chain 1 of 4): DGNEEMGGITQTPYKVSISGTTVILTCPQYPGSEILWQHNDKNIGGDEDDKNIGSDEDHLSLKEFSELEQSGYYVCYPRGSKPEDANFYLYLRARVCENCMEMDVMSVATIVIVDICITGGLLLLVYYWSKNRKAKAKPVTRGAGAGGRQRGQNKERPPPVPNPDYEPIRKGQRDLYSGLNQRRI
human CD3 expressed on cells (Jurkat cells; human T-cells of PBMC) (human), sequence (chain, as listed by the source, chain 2 of 4): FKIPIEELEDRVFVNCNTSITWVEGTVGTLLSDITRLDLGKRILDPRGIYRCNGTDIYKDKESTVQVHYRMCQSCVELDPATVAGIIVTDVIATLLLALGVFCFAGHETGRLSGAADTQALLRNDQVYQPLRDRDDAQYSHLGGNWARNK
human CD3 expressed on cells (Jurkat cells; human T-cells of PBMC) (human), sequence (P09693 23-182, chain 3 of 4): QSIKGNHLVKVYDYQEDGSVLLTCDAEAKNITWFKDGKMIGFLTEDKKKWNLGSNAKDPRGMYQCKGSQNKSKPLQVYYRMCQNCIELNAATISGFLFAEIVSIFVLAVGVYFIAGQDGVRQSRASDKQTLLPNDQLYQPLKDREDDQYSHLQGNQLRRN
human CD3 expressed on cells (Jurkat cells; human T-cells of PBMC) (human), sequence (P20963 22-164, chain 4 of 4): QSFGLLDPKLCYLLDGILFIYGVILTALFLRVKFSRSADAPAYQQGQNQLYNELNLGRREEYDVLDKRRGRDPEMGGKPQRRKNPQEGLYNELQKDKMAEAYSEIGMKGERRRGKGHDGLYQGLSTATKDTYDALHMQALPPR

B1: H1H5756B (antibody, human IgG1, V domains shown)
VH: EVQLVESGGGVVQPGRSLRLSCTASGFPFSRYGMHWVRQAPGKGLEWVTFIWYDGSNKYYADSAKGRFTITRDNSKNTVYLQMDSLRADDTAVYYCVRDQAALYYFDSWGQGTLVTVSS
VL: DIQMTQSPSSVSASVGDRVTITCRASQGISRWLAWYQQKPGKAPKLLISAASSLQSGVPSRFSGSGSGTDFTLTISGLQPEDFATYYCQKANSFPFTFGPGTKLEIKR
Molecule B1 came in with a U937 Cytotoxicity Human T-cells of 76.9 pM.

The values above are taken from US20190127480A1.
